Results reported in US20240376455.

Columns and labels:
Experiment in all cases: cleavage_in_vitro
[1] = tested on: T1, LPG10134 (Brevundimonas vesicularis); details: PAM NGG; 37C 120 min
T1 sequence: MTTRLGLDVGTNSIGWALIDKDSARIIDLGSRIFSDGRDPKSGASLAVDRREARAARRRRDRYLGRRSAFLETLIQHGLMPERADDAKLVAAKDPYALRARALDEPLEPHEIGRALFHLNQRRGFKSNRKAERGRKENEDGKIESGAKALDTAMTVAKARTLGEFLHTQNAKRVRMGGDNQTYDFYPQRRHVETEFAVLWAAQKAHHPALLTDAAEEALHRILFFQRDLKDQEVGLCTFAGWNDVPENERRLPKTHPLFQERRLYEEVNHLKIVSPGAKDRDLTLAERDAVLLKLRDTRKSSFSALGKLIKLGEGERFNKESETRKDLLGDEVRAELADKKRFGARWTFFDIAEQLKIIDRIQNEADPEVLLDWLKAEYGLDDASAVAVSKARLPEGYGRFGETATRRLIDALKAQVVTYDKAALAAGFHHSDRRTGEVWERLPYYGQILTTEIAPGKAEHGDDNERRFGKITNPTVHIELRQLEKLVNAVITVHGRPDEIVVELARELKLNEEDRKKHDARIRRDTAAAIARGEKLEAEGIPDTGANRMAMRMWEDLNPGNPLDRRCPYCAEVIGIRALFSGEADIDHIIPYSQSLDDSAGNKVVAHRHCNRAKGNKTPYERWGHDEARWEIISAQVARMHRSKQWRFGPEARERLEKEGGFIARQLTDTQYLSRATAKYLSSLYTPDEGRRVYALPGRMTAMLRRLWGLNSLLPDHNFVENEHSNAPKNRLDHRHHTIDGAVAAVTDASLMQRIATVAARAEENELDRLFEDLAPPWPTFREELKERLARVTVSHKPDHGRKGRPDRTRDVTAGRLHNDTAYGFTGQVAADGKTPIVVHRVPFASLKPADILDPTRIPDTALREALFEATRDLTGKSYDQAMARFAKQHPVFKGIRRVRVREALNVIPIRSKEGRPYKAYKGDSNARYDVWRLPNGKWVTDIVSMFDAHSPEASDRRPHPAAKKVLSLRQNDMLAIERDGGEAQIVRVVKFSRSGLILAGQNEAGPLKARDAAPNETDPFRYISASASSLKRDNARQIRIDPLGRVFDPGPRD

[2] = tested on: T2, LPG10155 (Chryseobacterium geocarposphaerae); details: PAM SEQ ID 82
T2 sequence: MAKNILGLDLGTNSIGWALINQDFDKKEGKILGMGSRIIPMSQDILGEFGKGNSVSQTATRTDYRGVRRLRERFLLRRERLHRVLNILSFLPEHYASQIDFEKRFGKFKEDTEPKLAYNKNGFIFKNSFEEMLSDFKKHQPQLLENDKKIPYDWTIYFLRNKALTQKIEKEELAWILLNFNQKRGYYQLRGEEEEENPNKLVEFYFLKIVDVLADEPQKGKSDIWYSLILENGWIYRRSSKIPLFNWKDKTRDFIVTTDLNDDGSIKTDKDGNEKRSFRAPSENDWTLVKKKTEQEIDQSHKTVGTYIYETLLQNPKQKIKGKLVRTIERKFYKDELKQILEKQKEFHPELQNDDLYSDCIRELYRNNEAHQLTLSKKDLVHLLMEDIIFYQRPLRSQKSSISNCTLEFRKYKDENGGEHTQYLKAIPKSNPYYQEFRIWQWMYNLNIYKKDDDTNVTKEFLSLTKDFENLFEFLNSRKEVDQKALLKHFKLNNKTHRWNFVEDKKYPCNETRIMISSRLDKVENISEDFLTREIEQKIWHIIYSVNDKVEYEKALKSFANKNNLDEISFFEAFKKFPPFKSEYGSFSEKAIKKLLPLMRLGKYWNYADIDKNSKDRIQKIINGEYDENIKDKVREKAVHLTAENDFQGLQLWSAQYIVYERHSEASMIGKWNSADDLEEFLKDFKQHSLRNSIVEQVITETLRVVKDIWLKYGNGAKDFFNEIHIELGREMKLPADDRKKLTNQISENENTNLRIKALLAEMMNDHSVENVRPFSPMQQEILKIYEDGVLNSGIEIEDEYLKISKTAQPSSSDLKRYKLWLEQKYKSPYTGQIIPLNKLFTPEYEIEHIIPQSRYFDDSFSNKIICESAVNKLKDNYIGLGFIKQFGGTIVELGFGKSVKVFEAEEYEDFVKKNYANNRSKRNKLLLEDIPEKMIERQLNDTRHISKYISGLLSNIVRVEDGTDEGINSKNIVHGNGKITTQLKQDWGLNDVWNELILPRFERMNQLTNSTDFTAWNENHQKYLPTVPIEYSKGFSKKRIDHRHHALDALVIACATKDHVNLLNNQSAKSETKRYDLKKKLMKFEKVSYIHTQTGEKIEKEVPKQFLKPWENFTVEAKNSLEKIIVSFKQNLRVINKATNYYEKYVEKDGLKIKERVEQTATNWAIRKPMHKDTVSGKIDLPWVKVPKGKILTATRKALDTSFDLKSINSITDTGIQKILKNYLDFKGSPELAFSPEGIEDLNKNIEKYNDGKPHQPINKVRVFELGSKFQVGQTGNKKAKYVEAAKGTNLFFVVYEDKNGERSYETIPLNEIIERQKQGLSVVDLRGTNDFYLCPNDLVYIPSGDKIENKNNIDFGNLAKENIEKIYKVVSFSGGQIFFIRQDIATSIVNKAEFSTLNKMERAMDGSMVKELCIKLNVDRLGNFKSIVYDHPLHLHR

[3] = tested on: T3, LPG10160 (Chryseobacterium ureilyticum); details: PAM SEQ ID 84; 35% pure protein
T3 sequence: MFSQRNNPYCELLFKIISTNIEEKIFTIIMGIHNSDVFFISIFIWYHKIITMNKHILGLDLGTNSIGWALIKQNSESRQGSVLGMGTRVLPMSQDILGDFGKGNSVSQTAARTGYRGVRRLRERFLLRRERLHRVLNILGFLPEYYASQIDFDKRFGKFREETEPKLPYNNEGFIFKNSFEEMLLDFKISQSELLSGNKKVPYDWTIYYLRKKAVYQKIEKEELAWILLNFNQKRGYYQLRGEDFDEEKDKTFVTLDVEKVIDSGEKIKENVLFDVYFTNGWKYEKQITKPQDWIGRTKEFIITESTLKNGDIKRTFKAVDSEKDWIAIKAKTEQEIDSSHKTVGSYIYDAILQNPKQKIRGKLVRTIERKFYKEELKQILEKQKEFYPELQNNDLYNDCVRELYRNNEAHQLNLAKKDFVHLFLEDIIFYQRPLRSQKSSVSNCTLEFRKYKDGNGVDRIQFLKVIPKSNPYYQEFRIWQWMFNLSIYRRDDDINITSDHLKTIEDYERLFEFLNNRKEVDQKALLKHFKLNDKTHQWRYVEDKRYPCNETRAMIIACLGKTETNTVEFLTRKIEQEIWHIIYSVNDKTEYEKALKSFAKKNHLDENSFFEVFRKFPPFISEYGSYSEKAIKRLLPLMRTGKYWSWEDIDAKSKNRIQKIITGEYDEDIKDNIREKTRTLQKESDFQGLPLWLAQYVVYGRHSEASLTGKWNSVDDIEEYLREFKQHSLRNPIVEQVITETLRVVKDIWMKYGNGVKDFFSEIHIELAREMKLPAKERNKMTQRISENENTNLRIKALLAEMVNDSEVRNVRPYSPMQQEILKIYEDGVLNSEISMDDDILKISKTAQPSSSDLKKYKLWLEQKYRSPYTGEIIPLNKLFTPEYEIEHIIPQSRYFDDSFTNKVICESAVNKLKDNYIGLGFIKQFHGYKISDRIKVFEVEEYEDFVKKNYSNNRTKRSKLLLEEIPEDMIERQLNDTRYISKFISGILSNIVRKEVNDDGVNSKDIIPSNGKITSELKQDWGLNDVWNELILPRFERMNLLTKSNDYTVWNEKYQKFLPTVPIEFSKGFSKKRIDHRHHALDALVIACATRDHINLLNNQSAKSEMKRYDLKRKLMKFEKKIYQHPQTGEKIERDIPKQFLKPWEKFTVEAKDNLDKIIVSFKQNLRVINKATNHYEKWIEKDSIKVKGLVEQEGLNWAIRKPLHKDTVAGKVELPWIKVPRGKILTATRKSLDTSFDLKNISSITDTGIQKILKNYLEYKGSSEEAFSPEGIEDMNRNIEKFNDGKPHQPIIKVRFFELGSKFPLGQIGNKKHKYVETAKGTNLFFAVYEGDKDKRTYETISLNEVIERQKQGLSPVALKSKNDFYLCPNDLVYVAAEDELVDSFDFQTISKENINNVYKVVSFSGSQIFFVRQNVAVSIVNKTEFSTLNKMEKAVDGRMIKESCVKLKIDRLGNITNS

| Sequence | activity (% target strand cleaved) [1] | activity (% target strand cleaved) [2] | activity (% target strand cleaved) [3] |
| --- | --- | --- | --- |
| CCAUGAUAUAGACGUUGUGGCUGUUGUAGUGUUGCCGCUGGCCUUCGAUUUCUGAAAAGUCAGAAAUCGAAGGCUGGCUGUUAACAAGCAGCUAGACUGCACCAAAUAAGGGCGGGGCUACGGCCCCGUCUUUU / GATATAGACGTTGTGGCTGTTGTAGTAGGACCTC / GAGGTCCTACTACAACAGCCACAACGTCTATATC [LPG10134 sgRNA L2 ; Library 2 target AGGACCTC] | 0 | – | – |
| GUUGCCGCUGGCCUUCGAUUUCUGAAAAGUCAGAAAUCGAAGGCUGGCUGUUAACAAGCAGCUAGACUGCACCAAAUAAGGGCGGGGCUACGGCCCCGUCUUUUGAGCGGACAGCAGCUUCCUAUAUCUCGUAC / GGACAGCAGCTTCCTATATCTCGTACAGGACCTC / GAGGTCCTGTACGAGATATAGGAAGCTGCTGTCC [LPG10134 sgRNA L1 ; Library 1 target AGGACCTC] | 0 | – | – |
| GUUGUGAAUUGCUUUAAAGAAAGCAAUUCACAAUAAGGAUUAUUCCGUUGUGAAAACAUCUAGCGCCUCGUCUAUCUACGGGGCAUUUU / GATATAGACGTTGTGGCTGTTGTAGTAGAAATTC / GAATTTCTACTACAACAGCCACAACGTCTATATC [LPG10155 sgRNA L2 ; Library 2 target AGAAATTC] | – | 7.6 | – |
| GUUGUGAAUUGCUUUAAAGAAAGCAAUUCACAAUAAGGAUUAUUCCGUUGUGAAAACAUCUAGCGCCUCGUCUAUCUACGGGGCAUUUU / GGACAGCAGCTTCCTATATCTCGTACAGAAATTC / GAATTTCTGTACGAGATATAGGAAGCTGCTGTCC [LPG10155 sgRNA L1 ; Library 1 target AGAAATTC] | – | 32.7 | – |
| GUUGUGAUUUGCUUUAAAGAAAGCAAUUCACAAUAAGGAUUAUUCCGUUGUGAAAACAUUUAAGCCCCCUCGUCUUACAAUACGGGGAUUU / GATATAGACGTTGTGGCTGTTGTAGTAAATATTC / GAATATTTACTACAACAGCCACAACGTCTATATC [LPG10160 sgRNA L2 ; Library 2 target AAATATTC] | – | – | 0 |
| GUUGUGAUUUGCUUUAAAGAAAGCAAUUCACAAUAAGGAUUAUUCCGUUGUGAAAACAUUUAAGCCCCCUCGUCUUACAAUACGGGGAUUU / GGACAGCAGCTTCCTATATCTCGTACAAATATTC / GAATATTTGTACGAGATATAGGAAGCTGCTGTCC [LPG10160 sgRNA L1 ; Library 1 target AAATATTC] | – | – | 0 |
